Key:
[1] = target: PML-RAR (UniProt P29590); test: cell-based or functional assay
[2] = target: nuclear corepressor (NCoR) (UniProt O75376); test: cell-based or functional assay
Sequence of nuclear corepressor (NCoR) (O75376 whole entry): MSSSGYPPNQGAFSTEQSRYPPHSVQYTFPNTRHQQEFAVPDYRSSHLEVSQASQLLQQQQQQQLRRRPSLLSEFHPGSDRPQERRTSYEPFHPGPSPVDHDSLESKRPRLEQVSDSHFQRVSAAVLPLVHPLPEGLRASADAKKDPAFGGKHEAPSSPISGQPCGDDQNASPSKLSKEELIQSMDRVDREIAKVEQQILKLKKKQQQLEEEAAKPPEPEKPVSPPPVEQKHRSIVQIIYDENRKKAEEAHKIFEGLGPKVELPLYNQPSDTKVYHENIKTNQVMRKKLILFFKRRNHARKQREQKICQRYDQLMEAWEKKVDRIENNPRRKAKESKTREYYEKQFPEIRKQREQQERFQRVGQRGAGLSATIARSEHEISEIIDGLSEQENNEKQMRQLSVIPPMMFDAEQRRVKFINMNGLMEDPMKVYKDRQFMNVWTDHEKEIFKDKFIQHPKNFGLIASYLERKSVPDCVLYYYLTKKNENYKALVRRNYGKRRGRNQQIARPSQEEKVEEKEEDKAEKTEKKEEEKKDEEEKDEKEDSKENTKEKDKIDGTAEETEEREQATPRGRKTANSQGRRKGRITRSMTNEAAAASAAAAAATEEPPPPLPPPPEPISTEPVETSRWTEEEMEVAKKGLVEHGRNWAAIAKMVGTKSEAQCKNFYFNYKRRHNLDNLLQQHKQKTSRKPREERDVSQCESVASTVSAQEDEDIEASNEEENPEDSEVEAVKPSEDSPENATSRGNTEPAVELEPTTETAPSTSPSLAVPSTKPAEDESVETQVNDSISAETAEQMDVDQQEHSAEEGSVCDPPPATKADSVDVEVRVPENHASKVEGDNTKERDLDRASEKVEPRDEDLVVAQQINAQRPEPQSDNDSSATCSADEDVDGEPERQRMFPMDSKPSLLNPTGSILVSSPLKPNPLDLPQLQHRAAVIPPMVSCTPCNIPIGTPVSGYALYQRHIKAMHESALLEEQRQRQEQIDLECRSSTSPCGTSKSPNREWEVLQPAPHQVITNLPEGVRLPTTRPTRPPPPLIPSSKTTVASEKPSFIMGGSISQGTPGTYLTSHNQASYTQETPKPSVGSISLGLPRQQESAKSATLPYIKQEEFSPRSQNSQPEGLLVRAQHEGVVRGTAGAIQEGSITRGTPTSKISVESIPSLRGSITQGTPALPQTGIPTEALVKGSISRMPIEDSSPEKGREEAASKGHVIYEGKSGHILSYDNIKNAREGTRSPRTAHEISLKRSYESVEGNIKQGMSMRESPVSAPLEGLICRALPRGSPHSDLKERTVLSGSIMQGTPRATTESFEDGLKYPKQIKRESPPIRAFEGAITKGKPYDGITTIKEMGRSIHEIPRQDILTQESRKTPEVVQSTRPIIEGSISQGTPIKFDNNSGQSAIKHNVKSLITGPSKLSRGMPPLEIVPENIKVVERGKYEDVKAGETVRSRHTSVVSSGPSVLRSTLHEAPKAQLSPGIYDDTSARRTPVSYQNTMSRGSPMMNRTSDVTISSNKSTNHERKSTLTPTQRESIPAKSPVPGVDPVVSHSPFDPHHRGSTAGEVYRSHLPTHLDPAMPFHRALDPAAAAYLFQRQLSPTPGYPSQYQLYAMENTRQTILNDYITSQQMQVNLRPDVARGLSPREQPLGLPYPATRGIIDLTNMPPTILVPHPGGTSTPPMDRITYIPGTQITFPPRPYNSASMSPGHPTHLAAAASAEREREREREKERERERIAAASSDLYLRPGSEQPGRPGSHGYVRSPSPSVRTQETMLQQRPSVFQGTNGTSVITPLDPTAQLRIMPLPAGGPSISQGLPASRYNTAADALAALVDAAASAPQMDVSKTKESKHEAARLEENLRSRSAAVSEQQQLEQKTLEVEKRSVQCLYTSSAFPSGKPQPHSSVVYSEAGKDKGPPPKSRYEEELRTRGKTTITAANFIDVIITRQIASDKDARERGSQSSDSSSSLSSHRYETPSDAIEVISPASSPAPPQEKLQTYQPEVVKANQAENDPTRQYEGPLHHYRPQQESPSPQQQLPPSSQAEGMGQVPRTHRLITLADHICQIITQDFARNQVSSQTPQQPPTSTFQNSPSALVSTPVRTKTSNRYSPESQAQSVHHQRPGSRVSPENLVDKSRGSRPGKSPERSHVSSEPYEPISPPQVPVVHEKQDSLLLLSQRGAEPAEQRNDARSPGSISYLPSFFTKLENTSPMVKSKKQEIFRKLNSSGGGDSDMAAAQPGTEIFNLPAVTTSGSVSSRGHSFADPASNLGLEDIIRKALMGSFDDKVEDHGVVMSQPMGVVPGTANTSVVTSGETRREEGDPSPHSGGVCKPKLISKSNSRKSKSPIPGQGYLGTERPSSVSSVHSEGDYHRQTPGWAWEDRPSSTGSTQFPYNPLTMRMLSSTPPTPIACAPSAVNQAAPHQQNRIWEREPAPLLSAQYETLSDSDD

Sequence of PML-RAR (from UniProt P29590 1-552; P10276 61-462) (P29590 other isoform, or with tags, fused parts or gaps limits assumed): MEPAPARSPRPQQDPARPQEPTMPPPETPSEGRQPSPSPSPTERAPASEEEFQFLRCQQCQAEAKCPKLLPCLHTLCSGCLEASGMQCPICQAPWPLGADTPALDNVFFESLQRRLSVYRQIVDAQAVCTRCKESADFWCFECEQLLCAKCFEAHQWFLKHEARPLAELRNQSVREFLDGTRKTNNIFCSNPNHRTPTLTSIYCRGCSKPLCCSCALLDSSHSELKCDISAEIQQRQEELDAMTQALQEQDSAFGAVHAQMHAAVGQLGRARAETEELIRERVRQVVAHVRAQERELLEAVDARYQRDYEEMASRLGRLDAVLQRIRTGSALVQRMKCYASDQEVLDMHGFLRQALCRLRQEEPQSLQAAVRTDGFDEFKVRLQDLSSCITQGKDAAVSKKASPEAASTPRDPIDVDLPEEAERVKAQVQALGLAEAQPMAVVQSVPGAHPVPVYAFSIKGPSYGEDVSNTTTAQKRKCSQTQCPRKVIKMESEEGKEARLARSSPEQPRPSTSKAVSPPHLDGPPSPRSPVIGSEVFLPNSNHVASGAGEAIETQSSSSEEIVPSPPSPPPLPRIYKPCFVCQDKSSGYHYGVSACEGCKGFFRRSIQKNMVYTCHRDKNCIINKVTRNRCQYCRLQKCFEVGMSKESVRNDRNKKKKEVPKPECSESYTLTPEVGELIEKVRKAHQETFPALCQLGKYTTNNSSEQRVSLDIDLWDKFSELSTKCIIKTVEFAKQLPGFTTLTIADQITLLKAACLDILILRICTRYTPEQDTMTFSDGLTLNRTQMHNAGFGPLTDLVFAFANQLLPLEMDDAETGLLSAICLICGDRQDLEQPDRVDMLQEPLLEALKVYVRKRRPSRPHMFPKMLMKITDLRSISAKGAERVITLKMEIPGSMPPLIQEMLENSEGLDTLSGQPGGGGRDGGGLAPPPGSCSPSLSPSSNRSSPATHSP
Sequence of PML-RAR (UniProt P29590) (P29590 other isoform, or with tags, fused parts or gaps limits assumed): as above

Row | percentage of differentiated, CD14+ U937 cells after vitamin D and TGFβ, PML-RAR induced (% CD14+ cells) [1] | transcriptional repression of GAL4-VP16 activation of the RARE-G5-TATA reporter in HeLa cells, 50 ng expression vector [2] [%] | Substance
1 | 70 | – | coiled coil of PML (RBCC) (from UniProt P29590 1-360)
2 | – | 30 to 40 | PML-RAR (from UniProt P29590 1-552; P10276 61-462)

Source: patent publication US20030207791A1, “Materials and methods relating to the treatment of leukaemias” (priority 2000, published 2003)
